Consider 75 sequences from the supplement of paper PMC7877785.

A short description of this data set: self-splicing fitness, log relative to wild type (ln ratio); higher = more splicing; Tetrahymena group I intron in knt gene, E. coli kanamycin selection, DiMSum; sequences stand for … in CUCUCU…GGAGGGAAAAGUUAUCAGGCAUGCACCUGGUAGCUAGUCUUUAAACCAAUAGAUUGCAUCGGUUUAAAAGGCAAGACCGUCAAAUUGCGGGAAAGGGGUCAACAGCCGUUCAGUACCAAGUCUCAGGGGAAACUUUGAGAUGGCCUUGCAAAGGGUAUGGUAAUAAGCUGACGGACAUGGUCCUAACCACGCAGCCAAGUCCUAAGUCAACAGAUCUUCUGUUGAUAUGGAUGCAGUUCACAGACUAAAUGUCGGUCGGGGAAGAUGUAUUCUUCUCAUAAGAUAUAGUCGGACCUCUCCUUAAUGGGAGCUAGCGGAUGAAGUGAUGCAACACUGGAGCCGCUGGGAACUAAUUUGUAUGCGAAAGUAUAUUGAUUAGUUUUGGAGUACUCGUGGUCG
The essentials:
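Library with all eight P1ex-region intron nucleotides randomised, intron inside the knt kanamycin-resistance gene on pET-22b(+), in E. coli BL21(DE3). Cells grew overnight at 37°C or 30°C on LB agar with or without 25 μg/mL kanamycin (plus 100 μg/mL carbenicillin, 50 μM IPTG, 0.2% rhamnose), in six replicate transformations. Pooled colonies were amplicon-sequenced on Illumina HiSeq 2500. DiMSum fitness is the error-weighted combination of wild-type-normalised replicate fold changes, kanamycin versus none.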

± gives the uncertainty stated by the source.

GAAUAGCAAUAUUACGAACA: the “self-splicing fitness (ln)” value runs as follows: (30 °C) -0.419 ± 0.13; (37 °C) -0.622 ± 0.11.

As to GAAUAGCAAUAUUACGAACG, the “self-splicing fitness (ln)” value is, setting by setting: (30 °C) -1.64 ± 0.1; (37 °C) -0.336 ± 0.11. The like results for GAAUAGCAAUAUUACGACGU were, in that order, -0.363 ± 0.11 and 0.265 ± 0.13.

Regarding GAAUAGCAAUAUUACGAGUU, the “self-splicing fitness (ln)” value runs as follows: (30 °C) -2.2 ± 0.084; (37 °C) -0.978 ± 0.093.

Consider GAAUAGCAAUAUUACGAUCA, for which the “self-splicing fitness (ln)” value is -1.11 ± 0.12 (30 °C) and 0.308 ± 0.11 (37 °C). The like results for GAAUAGCAAUAUUACGAUCC were, in that order, -1.16 ± 0.14 and -0.622 ± 0.15. Consider GAAUAGCAAUAUUACGAUUC, for which the “self-splicing fitness (ln)” value (30 °C) is -2.67 ± 0.14 and the “self-splicing fitness (ln)” value (37 °C) is -2.24 ± 0.2. As to GAAUAGCAAUAUUACGCCGA, the “self-splicing fitness (ln)” value (30 °C) was -1.62 ± 0.31 and the “self-splicing fitness (ln)” value (37 °C) was found to be 0.319 ± 0.22. Regarding GAAUAGCAAUAUUACGCCGG, the “self-splicing fitness (ln)” value reads like this: (30 °C) -2.65 ± 0.32; (37 °C) -1.79 ± 0.24. Taken in the same sequence, the figures for GAAUAGCAAUAUUACGCGAU were -3.41 ± 0.2 and -2.5 ± 0.19. Taken in the same sequence, the figures for GAAUAGCAAUAUUACGCGUU were -3.4 ± 0.24 and -1.37 ± 0.15. The like results for GAAUAGCAAUAUUACGCUCU were, in that order, -1.58 ± 0.12 and -1.4 ± 0.14. On to GAAUAGCAAUAUUACGGCUC, for which the “self-splicing fitness (ln)” value runs as follows: (30 °C) 0.451 ± 0.09; (37 °C) 0.374 ± 0.14. The like results for GAAUAGCAAUAUUACGUCGA were, in that order, -0.367 ± 0.11 and -0.794 ± 0.12. Taken in the same sequence, the figures for GAAUAGCAAUAUUACGUUAA were -2.56 ± 0.17 and -1.9 ± 0.15. Taken in the same sequence, the figures for GAAUAGCAAUAUUACGUUCA were -1.04 ± 0.38 and -0.336 ± 0.3. On to GAAUAGCAAUAUUACGUUCU, for which the “self-splicing fitness (ln)” value runs as follows: (30 °C) -3.24 ± 0.26; (37 °C) -1.82 ± 0.27. Taken in the same sequence, the figures for GACAAGCAAUAUUACGAAAA were -2.27 ± 0.24 and -2.22 ± 0.31. As to GACAAGCAAUAUUACGAAGC, the “self-splicing fitness (ln)” value reads like this: (30 °C) -2.96 ± 0.22; (37 °C) -2.15 ± 0.28. Taken in the same sequence, the figures for GACAAGCAAUAUUACGAGCA were -1.12 ± 0.093 and -0.355 ± 0.092.

For GACAAGCAAUAUUACGAGUA, the “self-splicing fitness (ln)” value reads like this: (30 °C) -2.1 ± 0.12; (37 °C) -0.706 ± 0.098. The like results for GACAAGCAAUAUUACGAUAC were, in that order, -1.73 ± 0.094 and -1.28 ± 0.11. With GACAAGCAAUAUUACGAUGU, the “self-splicing fitness (ln)” value is -1.66 ± 0.067 (30 °C) and -1.65 ± 0.11 (37 °C). Taken in the same sequence, the figures for GACAAGCAAUAUUACGCAAU were -3.08 ± 0.15 and -1.58 ± 0.12. As to GACAAGCAAUAUUACGCCGU, the “self-splicing fitness (ln)” value reads like this: (30 °C) -2.93 ± 0.14; (37 °C) -0.97 ± 0.12.

On to GACAAGCAAUAUUACGCGAG, for which the “self-splicing fitness (ln)” value (30 °C) is -1.25 ± 0.11 and the “self-splicing fitness (ln)” value (37 °C) is -2.03 ± 0.15. For GACAAGCAAUAUUACGCGAU, the “self-splicing fitness (ln)” value runs as follows: (30 °C) -2.96 ± 0.13; (37 °C) -1.02 ± 0.099. The like results for GACAAGCAAUAUUACGGACG were, in that order, -1.75 ± 0.098 and -0.673 ± 0.12. GACAAGCAAUAUUACGGAGC: the “self-splicing fitness (ln)” value reads like this: (30 °C) -2.2 ± 0.09; (37 °C) -1.65 ± 0.13. Taken in the same sequence, the figures for GACAAGCAAUAUUACGGCGU were -0.596 ± 0.063 and -0.154 ± 0.08. Taken in the same sequence, the figures for GACAAGCAAUAUUACGGGUA were -0.935 ± 0.066 and -0.82 ± 0.069. As for GACAAGCAAUAUUACGGUGA, the “self-splicing fitness (ln)” value is -1.3 ± 0.065 (30 °C) and -0.86 ± 0.086 (37 °C). The like results for GACAAGCAAUAUUACGUAGU were, in that order, -3.92 ± 0.18 and -1.65 ± 0.11. Taken in the same sequence, the figures for GACAAGCAAUAUUACGUUGG were -3.26 ± 0.11 and -2.56 ± 0.14. Consider GACAAGCAAUAUUACGUUUA, for which the “self-splicing fitness (ln)” value reads like this: (30 °C) -1.66 ± 0.084; (37 °C) -1.58 ± 0.089. Take GACCAGCAAUAUUACGACAA: the “self-splicing fitness (ln)” value (30 °C) is -0.854 ± 0.099 and the “self-splicing fitness (ln)” value (37 °C) is -0.621 ± 0.13.

On to GACCAGCAAUAUUACGAUCU, for which the “self-splicing fitness (ln)” value by setting is: (30 °C) -0.841 ± 0.091; (37 °C) -0.153 ± 0.1.

As to GACCAGCAAUAUUACGAUGG, the “self-splicing fitness (ln)” value (30 °C) was -3.69 ± 0.19 and the “self-splicing fitness (ln)” value (37 °C) is -2.82 ± 0.21.

In the case of GACCAGCAAUAUUACGCAGC, the “self-splicing fitness (ln)” value (30 °C) was -0.913 ± 0.11 and the “self-splicing fitness (ln)” value (37 °C) was -0.292 ± 0.13. Regarding GACCAGCAAUAUUACGCCCU, the “self-splicing fitness (ln)” value reads like this: (30 °C) -0.482 ± 0.11; (37 °C) -0.286 ± 0.12. The like results for GACCAGCAAUAUUACGCGCC were, in that order, -0.0376 ± 0.14 and -0.617 ± 0.18. GACCAGCAAUAUUACGCGGG: the “self-splicing fitness (ln)” value is -3.03 ± 0.13 (30 °C) and -2.79 ± 0.19 (37 °C). The like results for GACCAGCAAUAUUACGGCCC were, in that order, -2.54 ± 0.24 and -1.98 ± 0.34. Taken in the same sequence, the figures for GACCAGCAAUAUUACGGCCG were -0.246 ± 0.063 and 0.158 ± 0.093. Take GACCAGCAAUAUUACGGGAC: the “self-splicing fitness (ln)” value is -2.5 ± 0.092 (30 °C) and -1.03 ± 0.092 (37 °C). Taken in the same sequence, the figures for GACCAGCAAUAUUACGGGUA were -0.533 ± 0.058 and -0.146 ± 0.061. Taken in the same sequence, the figures for GACCAGCAAUAUUACGGGUU were -4.24 ± 0.21 and -2.53 ± 0.18. The like results for GACCAGCAAUAUUACGGUUA were, in that order, -0.367 ± 0.046 and -0.221 ± 0.056. With GACCAGCAAUAUUACGUGAA, the “self-splicing fitness (ln)” value is -0.0938 ± 0.063 (30 °C) and 0.524 ± 0.089 (37 °C). Taken in the same sequence, the figures for GACCAGCAAUAUUACGUGGU were -2.67 ± 0.095 and -3.29 ± 0.15. Turning to GACCAGCAAUAUUACGUGUG, the “self-splicing fitness (ln)” value reads like this: (30 °C) -0.363 ± 0.047; (37 °C) -0.452 ± 0.058. With GACGAGCAAUAUUACGAAGG, the “self-splicing fitness (ln)” value was -3.03 ± 0.19 (30 °C) and -2.52 ± 0.33 (37 °C).

For GACGAGCAAUAUUACGACAG, the “self-splicing fitness (ln)” value (37 °C) was -1.89 ± 0.23. GACGAGCAAUAUUACGAGGU: the “self-splicing fitness (ln)” value (30 °C) was -3.81 ± 0.28 and the “self-splicing fitness (ln)” value (37 °C) was -2.38 ± 0.27. The like results for GACGAGCAAUAUUACGAUUU were, in that order, -0.943 ± 0.085 and -1.19 ± 0.098. As to GACGAGCAAUAUUACGCAAA, the “self-splicing fitness (ln)” value by setting is: (30 °C) -3.39 ± 0.27; (37 °C) -1.96 ± 0.22. Taken in the same sequence, the figures for GACGAGCAAUAUUACGCAGA were -3.74 ± 0.33 and -3.45 ± 0.42.

For GACGAGCAAUAUUACGCCUA, where the note is “30 °C”, the “self-splicing fitness (ln)” value is -0.714 ± 0.32. As to GACGAGCAAUAUUACGCGAG, the “self-splicing fitness (ln)” value was -2.3 ± 0.17 (30 °C) and -2.85 ± 0.26 (37 °C). Turning to GACGAGCAAUAUUACGCGGU, the “self-splicing fitness (ln)” value was -4.23 ± 0.31 (30 °C) and -1.83 ± 0.2 (37 °C). Regarding GACGAGCAAUAUUACGCUAG, the “self-splicing fitness (ln)” value by setting is: (30 °C) -3.19 ± 0.19; (37 °C) -2.47 ± 0.18. GACGAGCAAUAUUACGGAAC: the “self-splicing fitness (ln)” value (30 °C) was -1.3 ± 0.19 and the “self-splicing fitness (ln)” value (37 °C) is -2.43 ± 0.35.

Consider GACGAGCAAUAUUACGGAUC, for which the “self-splicing fitness (ln)” value is, setting by setting: (30 °C) -2.68 ± 0.39; (37 °C) -1.75 ± 0.44.

As for GACGAGCAAUAUUACGGCAG, the “self-splicing fitness (ln)” value reads like this: (30 °C) -2.04 ± 0.25; (37 °C) -2.51 ± 0.38. Taken in the same sequence, the figures for GACGAGCAAUAUUACGGCCG were -2.02 ± 0.25 and -0.723 ± 0.37. The like results for GACGAGCAAUAUUACGGCGC were, in that order, -1.79 ± 0.093 and -0.8 ± 0.11.

In the case of GACGAGCAAUAUUACGGCGU, the “self-splicing fitness (ln)” value (30 °C) is -3.7 ± 0.32 and the “self-splicing fitness (ln)” value (37 °C) is -1.9 ± 0.26. The like results for GACGAGCAAUAUUACGGUAA were, in that order, -3.65 ± 0.47 and -2.33 ± 0.33. Taken in the same sequence, the figures for GACGAGCAAUAUUACGUACU were -1.64 ± 0.18 and -0.775 ± 0.14. The like results for GACGAGCAAUAUUACGUAUG were, in that order, -2.4 ± 0.17 and -1.58 ± 0.16. Take GACGAGCAAUAUUACGUCAU: the “self-splicing fitness (ln)” value by setting is: (30 °C) -2.2 ± 0.2; (37 °C) -3.16 ± 0.43. Take GACGAGCAAUAUUACGUCCA: the “self-splicing fitness (ln)” value is, setting by setting: (30 °C) -2.11 ± 0.32; (37 °C) -2.68 ± 0.31. GACGAGCAAUAUUACGUCCC: for the setting “37 °C”, the “self-splicing fitness (ln)” value is -0.0984 ± 0.5. Turning to GACGAGCAAUAUUACGUCUA, the “self-splicing fitness (ln)” value (30 °C) is -2.4 ± 0.23 and the “self-splicing fitness (ln)” value (37 °C) was -1.43 ± 0.13. With GACGAGCAAUAUUACGUCUG, the “self-splicing fitness (ln)” value (30 °C) was -3.64 ± 0.22 and the “self-splicing fitness (ln)” value (37 °C) was -2.53 ± 0.2.
